± gives the uncertainty stated by the source.

The data set in a line: protein stability index of a GFP-peptide fusion (yeast GPS) (PSI 1-4); higher = more stable; sorted into four equal gates, so the index is relative within each strain. The gist of the method:
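Mid-log yeast cultures in leucine-free medium, carrying a pooled plasmid library, were sorted into four equal gates by their GFP/Cherry fluorescence ratio. Each plasmid expressed Cherry along with GFP fused upstream of a tiled 17-residue yeast protein peptide. Plasmids recovered from each gate were PCR-amplified and Illumina-sequenced, with reads assigned to strains by barcodes. The protein stability index was obtained by summing each gate's read frequency weighted by its gate number.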

As for FMDNSYDIDEIDHSDES [ESC2], the protein stability index by setting is: (san1∆) 2.66 ± 0.14; (ubr1∆) 2.82 ± 0.13.
In the case of FMLILALFVFYSPNTLG [COB], the protein stability index by setting is: (doa10∆) 2.28 ± 0.074; (pdr5∆) 2.15 ± 0.057; (san1∆) 2.46 ± 0.056; (ubr1∆) 2.52 ± 0.053.
Take FMRNGLLEGLNEKIEKR [UBP6]: the protein stability index by setting is: (doa10∆) 2.99 ± 0.29; (pdr5∆) 2.87 ± 0.18; (san1∆) 3.21 ± 0.26; (ubr1∆) 3.55 ± 0.23.
On the same counts, the results for FNATVDETKGFDDNDSG [MED2] are 3.14 ± 0.09, 3.17 ± 0.078, 3.25 ± 0.066 and 3.29 ± 0.078.
On the same counts, the results for FNDSQAIVCYILFELYK [SRP72] are 1.95 ± 0.056, 2.31 ± 0.047, 2.01 ± 0.061 and 2.36 ± 0.053.
With FNKEQLNKFKKAIFQFV [ECM29], the protein stability index by setting is: (doa10∆) 1.58 ± 0.15; (pdr5∆) 1.27 ± 0.096; (ubr1∆) 1.15 ± 0.069.
FNKSAELSRIENEVENI [YCS4]: the protein stability index was found to be 3.51 ± 0.17 (doa10∆), 3.4 ± 0.19 (pdr5∆), 3.27 ± 0.06 (san1∆) and 3.39 ± 0.17 (ubr1∆).
The matching figures for FNTFWDEKGNEIKVGKQ [ARP9]: 3.24 ± 0.099, 2.53 ± 0.089, 2.88 ± 0.089 and 2.52 ± 0.059.
Turning to FNTNSSFTPSTVPNINF [YOR098C/NUP1], the protein stability index reads like this: (doa10∆) 2.48 ± 0.04; (pdr5∆) 2.42 ± 0.032; (san1∆) 2.54 ± 0.04; (ubr1∆) 2.77 ± 0.029.
As to FNYNIFMHDPSVFYNIA [SIR2], the protein stability index amounted to 1.46 ± 0.055 (doa10∆), 1.69 ± 0.037 (pdr5∆), 1.5 ± 0.073 (san1∆) and 1.76 ± 0.048 (ubr1∆).
Turning to FPMKQGVLLPTRIKLLL [RPS6A], the protein stability index runs as follows: (doa10∆) 1.26 ± 0.053; (pdr5∆) 1.39 ± 0.053; (san1∆) 1.17 ± 0.094; (ubr1∆) 1.29 ± 0.038.
Turning to FPMPYENEEFITFLQTL [ECM29], the protein stability index runs as follows: (doa10∆) 2.34 ± 0.058; (pdr5∆) 2.53 ± 0.034; (san1∆) 2.4 ± 0.047; (ubr1∆) 2.39 ± 0.063.
The matching figures for FPRDGKAPEAEQVLSAA [RPL13B]: 3.3 ± 0.093, 2.9 ± 0.086, 2.9 ± 0.069 and 3 ± 0.045.
The matching figures for FPSSETTSLNPIQSKVF [BRR2]: 2.2 ± 0.093, 2.52 ± 0.082, 1.79 ± 0.14 and 2.33 ± 0.11.
The matching figures for FPTTSHESLVTTLLRKK [MED8]: 2.12 ± 0.12, 1.82 ± 0.12, 1.72 ± 0.14 and 1.95 ± 0.12.
Regarding FQETLDSTVVYPLPKFP [MED8], the protein stability index was 3.05 ± 0.05 (doa10∆), 3.19 ± 0.044 (pdr5∆), 2.95 ± 0.042 (san1∆) and 3.15 ± 0.044 (ubr1∆).
On the same counts, the results for FQFFPKELDALQEKEQL [ISW2] are 2.79 ± 0.066, 2.97 ± 0.074, 3.04 ± 0.043 and 2.97 ± 0.06.
The matching figures for FQIEADFIGHNSNINTL [ASC1]: 2.1 ± 0.06, 2.63 ± 0.049, 2.35 ± 0.081 and 2.68 ± 0.043.
On the same counts, the results for FQYGSRLPTFLKHKSIC [RPP1] are 2.24 ± 0.081, 1.91 ± 0.055, 1.68 ± 0.084 and 1.87 ± 0.063.
As for FQYVIDESSGTSRIDEE [SMC4], the protein stability index worked out at 2.93 ± 0.082 (doa10∆), 2.86 ± 0.09 (pdr5∆), 2.05 ± 0.15 (san1∆) and 3.23 ± 0.13 (ubr1∆).
As for FRGIIRSQDVRSTDRDR [CSL4], the protein stability index (ubr1∆) is 2.9 ± 0.2.
As for FRGNISQPKIGYGSNKK [RPL32], the protein stability index runs as follows: (doa10∆) 2.88 ± 0.094; (pdr5∆) 2.88 ± 0.06; (san1∆) 2.88 ± 0.067; (ubr1∆) 2.89 ± 0.049.
With FRKKRKFELGRQPANTK [RPS8A], the protein stability index is 2.88 ± 0.063 (doa10∆), 3.12 ± 0.066 (pdr5∆), 3.13 ± 0.082 (san1∆) and 3.16 ± 0.065 (ubr1∆).
The matching figures for FRNPTPLLSNYASKINR [RGR1]: 1.44 ± 0.058, 1.6 ± 0.045, 1.34 ± 0.11 and 1.66 ± 0.048.
The matching figures for FRTDMLQVADKFFRVKY [SMC3]: 1.92 ± 0.068, 2.49 ± 0.066, 1.77 ± 0.076 and 2.12 ± 0.051.
With FSHLAGGKIINKLGNDP [BRR2], the protein stability index by setting is: (doa10∆) 2.94 ± 0.19; (pdr5∆) 3.1 ± 0.19; (san1∆) 2.91 ± 0.085; (ubr1∆) 3.02 ± 0.077.

The values are drawn from the supplement of paper PMC9732359.
